Reference: PMC3422313

What was measured:
[1] = target: human monoclonal anti-V3 antibody 447-52D (ARP3219) (human); test: SPR; BIAcore 3000; mAb 447-52D immobilised on CM5 by EDC/NHS (about 2000 RU); p24:V3 proteins as analyte 0.10-4.0 uM; HBS (10 mM Hepes, 150 mM NaCl, 3 mM EDTA, pH 7.4), 0.1 mM TCEP; 20 ul/min; 25 C; 1:1 Langmuir fit
[2] = target: p24:V3 CC mutant (chimeric p24:V3 protein with A14C/E45C in the p24 sequence) (HIV) (UniProt P12493); test: cross-linking; disulfide cross-linking by dialysis into assembly buffer (50 mM Tris pH 8, 1 M NaCl) with beta ME reduced to 20 mM or lower; read by non-reducing SDS-PAGE, 10% gel
[3] = target: p24:V3 CCAA mutant (chimeric p24:V3 protein with A14C/E45C/W184A/M185A in the p24 sequence) (HIV); test: as above
[4] = target: p24:V3 CCAA mutant (chimeric p24:V3 protein with A14C/E45C/W184A/M185A in the p24 sequence) (HIV); test: SEC; Superdex-200 PC; 30 mM Tris pH 8.0, 300 mM NaCl, 2 mM bME; 0.04 mL/min; compared with aldolase (158 kDa) and ferritin (440 kDa)
[5] = target: p24:V3 WT chimera (HIV p24 CA protein with the full V3 loop in place of the cyclophillin binding loop) (HIV) (UniProt P12493); test: as above

Chain of human monoclonal anti-V3 antibody 447-52D (ARP3219) (human) (heavy, as listed by the source, chain 1 of 2): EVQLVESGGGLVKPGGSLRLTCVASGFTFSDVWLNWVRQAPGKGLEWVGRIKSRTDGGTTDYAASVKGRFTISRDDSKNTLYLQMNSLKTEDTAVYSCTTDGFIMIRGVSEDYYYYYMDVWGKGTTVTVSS
Chain of human monoclonal anti-V3 antibody 447-52D (ARP3219) (human) (light, as listed by the source, chain 2 of 2): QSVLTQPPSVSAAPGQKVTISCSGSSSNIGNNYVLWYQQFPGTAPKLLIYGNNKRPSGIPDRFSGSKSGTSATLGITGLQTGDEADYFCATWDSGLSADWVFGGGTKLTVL

Substance | Kd [1] | stoichiometry N [2] | stoichiometry N [3] | stoichiometry N [4] | stoichiometry N [5]
p24:V3 CC mutant (chimeric p24:V3 protein with A14C/E45C in the p24 sequence) (from UniProt P12493 101-500) | 13.4 µM | 6 |  |  | 
p24:V3 CCAA mutant (chimeric p24:V3 protein with A14C/E45C/W184A/M185A in the p24 sequence) |  |  | 6 | 6 | 
p24:V3 WT chimera (HIV p24 CA protein with the full V3 loop in place of the cyclophillin binding loop) (from UniProt P12493 1-85; P12493 101-500) | 10.1 µM |  |  |  | 6
